The supplement of paper PMC7877785
± gives the uncertainty stated by the source.

Experiment: self-splicing fitness, log relative to wild type (ln ratio); higher = more splicing; Tetrahymena group I intron in knt gene, E. coli kanamycin selection, DiMSum; sequences stand for … in CUCUCU…GGAGGGAAAAGUUAUCAGGCAUGCACCUGGUAGCUAGUCUUUAAACCAAUAGAUUGCAUCGGUUUAAAAGGCAAGACCGUCAAAUUGCGGGAAAGGGGUCAACAGCCGUUCAGUACCAAGUCUCAGGGGAAACUUUGAGAUGGCCUUGCAAAGGGUAUGGUAAUAAGCUGACGGACAUGGUCCUAACCACGCAGCCAAGUCCUAAGUCAACAGAUCUUCUGUUGAUAUGGAUGCAGUUCACAGACUAAAUGUCGGUCGGGGAAGAUGUAUUCUUCUCAUAAGAUAUAGUCGGACCUCUCCUUAAUGGGAGCUAGCGGAUGAAGUGAUGCAACACUGGAGCCGCUGGGAACUAAUUUGUAUGCGAAAGUAUAUUGAUUAGUUUUGGAGUACUCGUGGUCG
How it was run: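 Library with all eight P1ex-region intron nucleotides randomised, intron inside the knt kanamycin-resistance gene on pET-22b(+), in E. coli BL21(DE3). Cells grew overnight at 37°C or 30°C on LB agar with or without 25 μg/mL kanamycin (plus 100 μg/mL carbenicillin, 50 μM IPTG, 0.2% rhamnose), in six replicate transformations. Pooled colonies were amplicon-sequenced on Illumina HiSeq 2500. DiMSum fitness is the error-weighted combination of wild-type-normalised replicate fold changes, kanamycin versus none.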

Row | Sequence | self-splicing fitness (ln) (30 °C) | self-splicing fitness (ln) (37 °C)
1 | AGUCAGCAAUAUUACGACGU | 0.702 ± 0.092 | -0.164 ± 0.096
2 | AGUCAGCAAUAUUACGAGUG | -2.14 ± 0.079 | -0.966 ± 0.095
3 | AGUCAGCAAUAUUACGAUGA | -0.22 ± 0.057 | -0.0826 ± 0.071
4 | AGUCAGCAAUAUUACGCAGG | -2.85 ± 0.26 | -2.92 ± 0.43
5 | AGUCAGCAAUAUUACGCAUG | -2.04 ± 0.14 | -1.12 ± 0.13
6 | AGUCAGCAAUAUUACGCCAA | -2.75 ± 0.34 | -0.963 ± 0.2
7 | AGUCAGCAAUAUUACGCGCA | -0.326 ± 0.11 | 0.452 ± 0.17
8 | AGUCAGCAAUAUUACGCGCG | 0.157 ± 0.12 | -0.374 ± 0.13
9 | AGUCAGCAAUAUUACGCUCG | -0.828 ± 0.075 | -0.495 ± 0.098
10 | AGUCAGCAAUAUUACGGAGG | -2.93 ± 0.13 | -1.31 ± 0.15
11 | AGUCAGCAAUAUUACGGCAC | -0.122 ± 0.093 | -0.255 ± 0.14
12 | AGUCAGCAAUAUUACGGCGC | -0.611 ± 0.13 | -0.0744 ± 0.18
13 | AGUCAGCAAUAUUACGGCUG | -0.616 ± 0.12 | -1.96 ± 0.22
14 | AGUCAGCAAUAUUACGGGGC | – | -2.31 ± 0.45
15 | AGUCAGCAAUAUUACGUAAA | -1.71 ± 0.12 | -0.231 ± 0.11
16 | AGUCAGCAAUAUUACGUGUU | -0.875 ± 0.061 | -0.392 ± 0.096
17 | AGUCAGCAAUAUUACGUUUC | -3.63 ± 0.15 | -1.34 ± 0.11
18 | AGUGAGCAAUAUUACGACAU | -1.07 ± 0.014 | -0.531 ± 0.034
19 | AGUGAGCAAUAUUACGACCG | – | -0.72 ± 0.27
20 | AGUGAGCAAUAUUACGACUU | -1.18 ± 0.17 | -0.93 ± 0.19
21 | AGUGAGCAAUAUUACGAUAA | -4.08 ± 0.33 | -2.16 ± 0.25
22 | AGUGAGCAAUAUUACGAUCG | -0.663 ± 0.23 | -0.975 ± 0.24
23 | AGUGAGCAAUAUUACGCAUU | -2.55 ± 0.21 | -1.4 ± 0.19
24 | AGUGAGCAAUAUUACGCCGC | -1.96 ± 0.25 | -0.183 ± 0.22

Row | Sequence | self-splicing fitness (ln) (30 °C) | self-splicing fitness (ln) (37 °C)
25 | AGUGAGCAAUAUUACGCGAU | -3.96 ± 0.42 | -1.8 ± 0.24
26 | AGUGAGCAAUAUUACGCGUA | -1.97 ± 0.27 | -1.48 ± 0.17
27 | AGUGAGCAAUAUUACGCGUU | -3.04 ± 0.19 | -2.18 ± 0.18
28 | AGUGAGCAAUAUUACGCUGG | – | -2.84 ± 0.41
29 | AGUGAGCAAUAUUACGGCAG | -3.28 ± 0.28 | -1.43 ± 0.24
30 | AGUGAGCAAUAUUACGGCCC | -1.16 ± 0.39 | –
31 | AGUGAGCAAUAUUACGGGCC | -3.49 ± 0.4 | -2.02 ± 0.34
32 | AGUGAGCAAUAUUACGGGGG | -3.05 ± 0.31 | -2.87 ± 0.3
33 | AGUGAGCAAUAUUACGGGUG | -3.71 ± 0.17 | -2.79 ± 0.21
34 | AGUGAGCAAUAUUACGGUUU | -2.09 ± 0.14 | -2.28 ± 0.33
35 | AGUGAGCAAUAUUACGUACU | -1.71 ± 0.13 | -1.15 ± 0.17
36 | AGUGAGCAAUAUUACGUCAG | -3 ± 0.21 | -2.56 ± 0.23
37 | AGUGAGCAAUAUUACGUGGG | -3.7 ± 0.29 | -2.51 ± 0.23
38 | AGUGAGCAAUAUUACGUUCC | -4 ± 0.34 | -1.47 ± 0.16
39 | AGUUAGCAAUAUUACGAAAG | -4.09 ± 0.21 | -2.82 ± 0.24
40 | AGUUAGCAAUAUUACGAACU | -1.59 ± 0.23 | -1.89 ± 0.28
41 | AGUUAGCAAUAUUACGACUU | -1.32 ± 0.078 | -0.587 ± 0.12
42 | AGUUAGCAAUAUUACGAGUU | -1.5 ± 0.086 | -0.514 ± 0.11
43 | AGUUAGCAAUAUUACGAUCG | -0.446 ± 0.1 | -0.0837 ± 0.12
44 | AGUUAGCAAUAUUACGAUCU | -0.0546 ± 0.1 | 0.11 ± 0.13
45 | AGUUAGCAAUAUUACGCAUA | -1.15 ± 0.19 | -0.764 ± 0.29
46 | AGUUAGCAAUAUUACGCGAC | -2.88 ± 0.45 | -0.848 ± 0.26
47 | AGUUAGCAAUAUUACGCGCG | -0.159 ± 0.12 | -0.151 ± 0.15
48 | AGUUAGCAAUAUUACGCUCU | -1.37 ± 0.45 | –

Row | Sequence | self-splicing fitness (ln) (30 °C) | self-splicing fitness (ln) (37 °C)
49 | AGUUAGCAAUAUUACGCUGA | -3.13 ± 0.3 | -2.05 ± 0.27
50 | AGUUAGCAAUAUUACGGUUU | -0.98 ± 0.071 | -0.317 ± 0.1
51 | AGUUAGCAAUAUUACGUCUU | -0.214 ± 0.096 | 0.541 ± 0.13
52 | AGUUAGCAAUAUUACGUGCC | -0.977 ± 0.12 | -0.145 ± 0.16
53 | AGUUAGCAAUAUUACGUUCU | -0.403 ± 0.1 | -0.302 ± 0.11
54 | AGUUAGCAAUAUUACGUUGA | -2.03 ± 0.31 | -2.02 ± 0.39
55 | AUAAAGCAAUAUUACGACGC | 0.18 ± 0.093 | 0.349 ± 0.14
56 | AUAAAGCAAUAUUACGACUC | -0.219 ± 0.075 | 0.324 ± 0.088
57 | AUAAAGCAAUAUUACGAUAC | -1.39 ± 0.12 | -0.441 ± 0.14
58 | AUAAAGCAAUAUUACGCAGC | -3.55 ± 0.4 | -1.04 ± 0.28
59 | AUAAAGCAAUAUUACGCCGA | -1.06 ± 0.077 | 0.123 ± 0.11
60 | AUAAAGCAAUAUUACGCCGC | -2.8 ± 0.18 | -2.05 ± 0.27
61 | AUAAAGCAAUAUUACGCCGG | -0.516 ± 0.13 | -0.807 ± 0.17
62 | AUAAAGCAAUAUUACGCGAG | -1.08 ± 0.075 | 0.0257 ± 0.095
63 | AUAAAGCAAUAUUACGCGCA | 0.0901 ± 0.058 | -0.398 ± 0.075
64 | AUAAAGCAAUAUUACGCGGA | -1.65 ± 0.083 | 0.155 ± 0.089
65 | AUAAAGCAAUAUUACGCGUG | -1.11 ± 0.067 | -0.15 ± 0.074
66 | AUAAAGCAAUAUUACGGCAC | -0.531 ± 0.073 | -0.1 ± 0.11
67 | AUAAAGCAAUAUUACGGCCU | 0.372 ± 0.11 | 0.382 ± 0.14
68 | AUAAAGCAAUAUUACGGCGC | 0.0765 ± 0.13 | 0.21 ± 0.14
69 | AUAAAGCAAUAUUACGGCGG | -0.248 ± 0.062 | -0.197 ± 0.077
70 | AUAAAGCAAUAUUACGGGCC | -2.21 ± 0.17 | -0.0428 ± 0.17
71 | AUAAAGCAAUAUUACGGGGA | -1.96 ± 0.14 | -1.4 ± 0.18
72 | AUAAAGCAAUAUUACGGUGG | -2.61 ± 0.1 | -1.4 ± 0.12

Row | Sequence | self-splicing fitness (ln) (30 °C) | self-splicing fitness (ln) (37 °C)
73 | AUAAAGCAAUAUUACGUAAU | -0.762 ± 0.081 | -0.869 ± 0.094
74 | AUAAAGCAAUAUUACGUCAG | -1.6 ± 0.12 | -0.647 ± 0.12
75 | AUAAAGCAAUAUUACGUCGG | -1.28 ± 0.075 | -0.774 ± 0.089
76 | AUAAAGCAAUAUUACGUGAU | -1.64 ± 0.074 | -0.793 ± 0.11
77 | AUAAAGCAAUAUUACGUGGC | -3.27 ± 0.13 | -2.69 ± 0.16
78 | AUAAAGCAAUAUUACGUGUG | -1.55 ± 0.061 | -0.947 ± 0.073
79 | AUAAAGCAAUAUUACGUUCC | -0.979 ± 0.13 | -0.885 ± 0.18
80 | AUAAAGCAAUAUUACGUUUA | -0.935 ± 0.065 | -0.201 ± 0.08
81 | AUACAGCAAUAUUACGAGAG | -3.39 ± 0.14 | -2.1 ± 0.088
82 | AUACAGCAAUAUUACGAUAC | -2.01 ± 0.075 | -1.08 ± 0.088
83 | AUACAGCAAUAUUACGAUCU | -0.478 ± 0.077 | -0.0165 ± 0.087
84 | AUACAGCAAUAUUACGAUGA | -1.42 ± 0.11 | -0.0115 ± 0.1
85 | AUACAGCAAUAUUACGCGCG | -0.869 ± 0.1 | -1.07 ± 0.093
86 | AUACAGCAAUAUUACGCUUG | -1.35 ± 0.08 | -0.94 ± 0.1
87 | AUACAGCAAUAUUACGGAAA | -3.24 ± 0.2 | -2.16 ± 0.17
88 | AUACAGCAAUAUUACGGCAU | -0.388 ± 0.083 | 0.525 ± 0.099
89 | AUACAGCAAUAUUACGGCGC | -0.801 ± 0.1 | 0.447 ± 0.15
90 | AUACAGCAAUAUUACGGCGG | -1.19 ± 0.095 | -0.617 ± 0.12
91 | AUACAGCAAUAUUACGGGCC | -2.7 ± 0.17 | -2.82 ± 0.44
92 | AUACAGCAAUAUUACGGGUC | -3.7 ± 0.21 | -2.48 ± 0.19
93 | AUACAGCAAUAUUACGUUUU | -2.19 ± 0.12 | -2.09 ± 0.15
94 | AUAGAGCAAUAUUACGAAUU | -0.889 ± 0.15 | -0.429 ± 0.23
95 | AUAGAGCAAUAUUACGACCG | -2.9 ± 0.27 | -1.57 ± 0.43
96 | AUAGAGCAAUAUUACGACGU | 0.0144 ± 0.077 | 0.556 ± 0.099
